pKd: −log10 of the molar value.

As a reminder, the pKd is −log10 of the Kd, conventionally taken in molar units.

For this test, the target named is His-tagged pleckstrin homology (PH) domain of AKT (AKT-PHD) (Marsupenaeus japonicus). As to the kind of experiment: ITC; CaM (70 uM) titrated into 10 uM AKT-PHD in the cell; 25°C; 0.1 M Tris-HCl pH 8.0; 19 injections; Auto-iTC200. (In general: Isothermal titration calorimetry measures the heat released or taken up as one component is titrated into another.)

Regarding “recombinant GST-tagged calmodulin (CaM) (natural protein)”, the pKd is 6.14 and the dH was -80.1 kcal/mol.

Source of the values: PMC9481175.
